According to PMC9886945 (Nature Communications, 2023):

How the values were obtained:
Test in all cases: cryo-EM structure
[1] = target: Mycobacterium tuberculosis RNA polymerase β' subunit (M. tuberculosis, UniProt P9WGY7); details: both partners purified
[2] = target: T1, Mycobacterium tuberculosis RNA polymerase β subunit (M. tuberculosis, UniProt P9WGY9); details: both partners purified
T1 sequence: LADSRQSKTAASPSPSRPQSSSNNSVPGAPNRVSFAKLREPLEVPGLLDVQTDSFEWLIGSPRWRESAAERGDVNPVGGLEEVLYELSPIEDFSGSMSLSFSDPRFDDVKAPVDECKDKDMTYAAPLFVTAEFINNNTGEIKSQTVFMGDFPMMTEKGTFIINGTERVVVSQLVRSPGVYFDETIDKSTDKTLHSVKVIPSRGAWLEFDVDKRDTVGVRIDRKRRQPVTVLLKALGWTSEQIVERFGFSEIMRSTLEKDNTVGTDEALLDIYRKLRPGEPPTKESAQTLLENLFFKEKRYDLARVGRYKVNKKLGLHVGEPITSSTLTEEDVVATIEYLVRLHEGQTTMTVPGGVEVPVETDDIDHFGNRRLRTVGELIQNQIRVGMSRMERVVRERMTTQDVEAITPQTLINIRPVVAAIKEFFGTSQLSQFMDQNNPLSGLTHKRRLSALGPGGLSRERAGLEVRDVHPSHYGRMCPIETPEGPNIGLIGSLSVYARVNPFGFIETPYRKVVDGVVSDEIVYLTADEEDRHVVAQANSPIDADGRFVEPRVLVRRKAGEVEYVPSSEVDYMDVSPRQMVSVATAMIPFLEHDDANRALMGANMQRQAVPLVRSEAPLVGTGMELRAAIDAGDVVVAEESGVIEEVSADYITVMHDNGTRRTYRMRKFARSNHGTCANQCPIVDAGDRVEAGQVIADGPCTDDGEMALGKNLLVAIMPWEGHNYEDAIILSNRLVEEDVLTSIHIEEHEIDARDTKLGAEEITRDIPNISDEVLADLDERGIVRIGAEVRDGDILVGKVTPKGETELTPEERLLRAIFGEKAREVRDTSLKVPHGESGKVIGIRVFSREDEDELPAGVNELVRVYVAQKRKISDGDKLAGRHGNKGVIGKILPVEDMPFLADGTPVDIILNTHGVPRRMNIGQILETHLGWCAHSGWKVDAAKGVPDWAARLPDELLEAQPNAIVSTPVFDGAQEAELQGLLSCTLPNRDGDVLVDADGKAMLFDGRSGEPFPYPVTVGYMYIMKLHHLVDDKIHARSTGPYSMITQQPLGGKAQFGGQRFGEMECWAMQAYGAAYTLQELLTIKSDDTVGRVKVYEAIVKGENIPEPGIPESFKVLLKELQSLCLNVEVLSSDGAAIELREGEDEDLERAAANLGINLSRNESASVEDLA

cryo-EM structure = target: the molecule itself

Measured: binding result

Mycobacterium tuberculosis RNA polymerase β' subunit, sequence (P9WGY7 whole entry): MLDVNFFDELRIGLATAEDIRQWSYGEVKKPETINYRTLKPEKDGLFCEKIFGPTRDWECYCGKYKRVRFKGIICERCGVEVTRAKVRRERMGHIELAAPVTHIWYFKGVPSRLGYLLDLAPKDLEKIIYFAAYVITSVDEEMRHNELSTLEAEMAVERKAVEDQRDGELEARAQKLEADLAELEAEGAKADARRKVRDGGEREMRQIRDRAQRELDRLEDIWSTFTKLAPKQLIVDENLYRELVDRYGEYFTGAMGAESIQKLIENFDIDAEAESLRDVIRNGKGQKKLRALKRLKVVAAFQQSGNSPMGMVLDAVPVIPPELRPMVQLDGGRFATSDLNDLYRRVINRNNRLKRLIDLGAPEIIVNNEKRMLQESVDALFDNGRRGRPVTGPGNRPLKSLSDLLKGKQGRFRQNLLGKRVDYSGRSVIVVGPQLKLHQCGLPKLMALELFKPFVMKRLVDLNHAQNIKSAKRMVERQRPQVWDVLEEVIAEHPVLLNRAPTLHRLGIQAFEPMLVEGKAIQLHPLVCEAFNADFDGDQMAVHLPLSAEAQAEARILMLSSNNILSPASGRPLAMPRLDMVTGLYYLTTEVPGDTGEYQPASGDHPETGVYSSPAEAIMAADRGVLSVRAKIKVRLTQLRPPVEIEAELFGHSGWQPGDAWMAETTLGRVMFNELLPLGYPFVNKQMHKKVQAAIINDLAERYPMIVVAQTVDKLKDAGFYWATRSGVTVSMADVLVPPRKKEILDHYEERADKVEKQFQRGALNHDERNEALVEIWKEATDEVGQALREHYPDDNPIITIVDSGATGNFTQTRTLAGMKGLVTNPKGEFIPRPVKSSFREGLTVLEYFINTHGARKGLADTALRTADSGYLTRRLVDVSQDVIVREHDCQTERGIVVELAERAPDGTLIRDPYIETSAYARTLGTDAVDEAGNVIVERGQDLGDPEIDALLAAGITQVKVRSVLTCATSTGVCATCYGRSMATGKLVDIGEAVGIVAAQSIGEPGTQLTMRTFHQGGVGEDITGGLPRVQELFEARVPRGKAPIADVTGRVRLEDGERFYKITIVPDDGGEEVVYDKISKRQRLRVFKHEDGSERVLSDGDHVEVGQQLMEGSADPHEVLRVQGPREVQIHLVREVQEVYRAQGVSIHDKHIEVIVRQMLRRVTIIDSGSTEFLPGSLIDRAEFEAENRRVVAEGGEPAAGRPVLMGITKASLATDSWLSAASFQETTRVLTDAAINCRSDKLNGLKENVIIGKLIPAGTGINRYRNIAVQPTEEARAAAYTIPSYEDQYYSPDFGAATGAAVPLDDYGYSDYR

B1: Mycobacterium tuberculosis σ^B subunit (natural protein)
chain: MADAPTRATTSRVDSDLDAQSPAADLVRVYLNGIGKTALLNAAGEVELAKRIEAGLYAEHLLETRKRLGENRKRDLAAVVRDGEAARRHLLEANLRLVVSLAKRYTGRGMPLLDLIQEGNLGLIRAMEKFDYTKGFKFSTYATWWIRQAITRGMADQSRTIRLPVHLVEQVNKLARIKREMHQHLGREATDEELAAESGIPIDKINDLLEHSRDPVSLDMPVGSEEEAPLGDFIEDAEAMSAENAVIAELLHTDIRSVLATLDEREHQVIRLRFGLDDGQPRTLDQIGKLFGLSRERVRQIERDVMSKLRHGERADRLRSYAS
binds: all assays above
